A short description of the data set: label from the status in PepcDB records.
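Note: failed if final PepcDB status was selected cloned or expressed and not failed if soluble or beyond.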

As for “MAKIHVLEKHVAELIAAGEVVERPSSVIKELVENSIDAGATTISVEIQRGGIAYMRVTDNGGGIAREDVPKAFLRNATSKVESAEDLDGIGTLGFRGEALASICAVSRVTLLTRTEEELAGTSYQIEGGEELALEDAGCAKGCTIVVRDLFYNTPARMKFLKKDVSEANAVAGVMDRAALSHPEISFRFVRDHKETLSTPGDRQLRSCIYAVYGKDFTAGLIPVDYAYNGIKVRGFISKPSAARPNRSMQHFFINGRFVKSKTAMVALEQAFKGSIMAGKFPSCVLHLSVPWEAVDVNVHPSKIEVRFLNEKPIFDAVYHGVKSALLSGDQRKEMILPRPKLDPPASQPEQIRLAAKPAIGSAAQETAEKEARLLTSQTEQAPNSSLGAYEKVVSSSAGRLAQPQQAPLGKAPDKAFPQTASGPAVAGTSHIGENAADKKPPSSLPGIGAAGRIPVPYEENEPEIYLPVKRQTAIPAVRDFISSPFSFSDEASKPKAAGEAPGDTGFEAAAADRGRKAEPKAQELSEEAAGEKPESSRQAAAAEPPREEAGLQPFGEKRQRLVGEAFRTYLIIEYGDDELLLIDKHAAHERILYEKLKKESGKSCAQYLLEPIPVTLDKNEYAAVLENQKLFWEAGFEVEDFGGGSVLVRSAPLSLEQEDIASSLMEIAGHLLENKTDMSTEKLDWLYHNIACRAAVKAGQITSDQELIALAVALRENPEIRYCPHGRPVSITLKKREIEKQFGRIQ”, the protein production result was “failed”.

With “MAKITVGTENQAPIEIYYEDHGTGKPVVLIHGWPLSGRSWEYQVPALVEAGYRVITYDRRGFGKSSQPWEGYEYDTFTSDLHQLLEQLELQNVTLVGFSMGGGEVARYISTYGTDRIEKVVFAGAVPPYLYKSEDHPEGALDDATIETFKSGVINDRLAFLDEFTKGFFAAGDRTDLVSESFRLYNWDIAAGASPKGTLDCITAFSKTDFRKDLEKFNIPTLIIHGDSDATVPFEYSGKLTHEAIPNSKVALIKGGPHGLNATHAKEFNEALLLFLKD”, the protein production result is given as “not failed”.

As to “MAKIVQLPDDLSNKIAAGEVVERPASVVKELVENAIDANSSVIEIDVEEAGLASIKVLDDGEGMDAEDCRTAFLRHATSKIKDENDLFRVRTLGFRGEALPSIASVSHLSIKTSTGEGAGTHLTLQGGRIISEQKAPSRRGTEITVTNLFFNTPARLKYMKTIHTELGNITDVVNRIALAHPEVSIRLRHQGKTLLQTNGNGDVRHVLAAIYGTAVAKKMLPLEARSLDFEVKGYIALPEITRASRNYMSSVVNGRYIKNFPLVKAIHEGYHTLLPIGRHPITFIEINMDPLLVDVNVHPSKLEVRLSKETELHELIRDAIKDVFKQQQLIPSVQVPKKTAPLINKPEQQKLDFDQVREPAPLSDSDVEREYKPEPSFSAMKLSSLVKDPPPSAPVEREENVMQDTEPEWPGAEEYTPEAAPAVQAEPEQAGENVQDEETPKERVPIMYPIGQMHGTYILAQNENGLYIIDQHAAQERIKYEYFREKVGEVESEVQDLLVPLTFHYSKNEALTIDQHLDDLAKVGVFLESFGAGSYIVRCHPTWFPKGEETTIIEDIIQQVLDDRTIDIKKLREEAAIMMSCKGSIKANHHLRDDEITALLDELRRTSDPFTCPHGRPIIIHYSTYEMEKMFKRVM”, the protein production result was “failed”.

With “MAKKKKEILFCDYYEDWVETYKVGAIEDVTLNKYYVAARQLRDICPKLLMSDFSRKDYQLIMNEYGKTHEKQTAKDFHHHIKAAILDAYHDGLLKSDPTYRAVIKGKEPGKKKLEHHHHHH”, the protein production entry is given as “not failed”.

As to “MAKKRSKLEIIQAILEACKSGSPKTRIMYGANLSYALTGRYIKMLMDLEIIRQEGKQYMLTKKGEELLEDIRKFNEMRKNMDQLKEKINSVLSIRQ”, the protein production entry is “not failed”.

For “MAKKTLILYYSWSGETKKMAEKINSEIKDSELKEVKVSEGTFDADMYKTSDIALDQIQGNKDFPEIQLDNIDYNNYDLILIGSPVWSGYPATPIKTLLDQMKNYRGEVASFFTSAGTNHKAYVSHFNEWADGLNVIGVARDDSEVDKWSK”, the protein production result was “not failed”.

With “MAKKTMGIHHITAIVGHPQENTDFYAGVLGLRLVKQTVNFDDPGTYHLYFGNEGGKPGTIITFFPWAGARQGVIGDGQVGVTSYVVPKGAMAFWEKRLEKFNVPYTKIERFGEQYVEFDDPHGLHLEIVEREEGEANTWTFGEVTPDVAIKGFGGATLLSEQPDKTADLLENIMGLERVGKEGDFVRYRSAGDIGNVIDLKLTPIGRGQMGAGTVHHIAWRANDDEDQLDWQRYIASHGYGVTPVRDRNYFNAIYFREHGEILFEIATDPPGFAHDETQETMGEKLMLPVQYEPHRTQIEQGLLPFEVRELD”, the protein production result is reported as “not failed”.

Turning to “MAKKVAVLAVNPVNGCGLFQYLEAFFENGISYKVFAVSDTKEIKTNSGMVLIVDDVIANLKGHEDEFDALVFSCGDAVPVFQQYANQPYNVDLMEVIKTFGEKGKMMIGHCAGAMMFDFTGITKGKKVAVHPLAKPAIQNGIATDEKSEIDGNFFTAQDENTIWTMLPKVIEALK”, the protein production result is “not failed”.

As for “MAKLSPTTRIFALVIKEILTLFKDPKGRIVLIAPPLLQLLIFSFAATMEIKNISIGILNQDFGKHGYEVIQRFIGSPTFSKVFFIQKQSDIKPIIDNQEAMVVMTIPQDFSRKIESNSQANIQLILDGRRSNATQIVNGYISSIIENYNQEIQKTHGAIMTPPVMVTRSWFNENLLYLWFTVPSLVCILSMLISLVVTALSVARERELGTFDQLLVSPLTPYEILIGKTIPAIIIGLAEGLLMWVAAVWLFDVPFYGSPLLMVYILFIFIMSTVGVGLFISSMCKTQQQAILGVFIYMVPVVTLSGYASPVENMPEWLQDLTWFNPLKFTLIAVIGIFLKGMSALEVFITTWPLLLVGAVTLFIAGWFFKQRME”, the protein production result is recorded as “failed”.

“MAKQDVIELEGTVLDTLPNAMFKVELENGHEILAHVSGKIRMNYIRILPGDKVTVEMSPYDLTRGRITYRYK”: the protein production entry is on record as “failed”.

As for “MAKRCALTFKGPMIGNHVSHANNKNKRRLLPNLRSIKIQLDDGTTKRIKVAASTLRTMRKGALEHHHHHH”, the protein production entry is recorded as “not failed”.

“MAKRIFLFILTNILVLTTIGIVLSVLSSVTGVGTYFTADGGIDPMALLVFSLVVGFVGSFTSLAISRWMAKTMMGVRVLNPKKHSLSYEEQQLVDRVHRLSRSAGLTKMPEVGIYRSPEVNAFATGPSKRRSLVAVSSGLLEQMDDAAVEGVLAHEVAHITNGDMVTMTLLQGIVNTFVVFLSRIAAWIASRFVKEDLAPIVHFIAMIIFQIVFSILGSLVVFAYSRHREFHADRGGADLAGKDKMIHALRTLKSYSSRILEDDQTAVQTLKINGKKRSSLFSTHPDLDERIRRLEAK”: the protein production entry is recorded as “failed”.

Consider “MAKSKSSQGASGARRKPAPSLYQHISSFKPQFSTRVDDVLHFSKTLTWRSEIIPDKSKGTLTTSLLYSQGSDIYEIDTTLPLKTFYDDDDDDDNDDDDEEGNGKTKSAATPNPEYGDAFQDVEGKPLRPKWIYQGETVAKMQYLESSDDSTAIAMSKNGSLAWFRDEIKVPVHIVQEMMGPATRYSSIHSLTRPGSLAVSDFDVSTNMDTVVKSQSNGYEEDSILKIIDNSDRPGDILRTVHVPGTNVAHSVRFFNNHLFASCSDDNILRFWDTRTADKPLWTLSEPKNGRLTSFDSSQVTENLFVTGFSTGVIKLWDARAVQLATTDLTHRQNGEEPIQNEIAKLFHSGGDSVVDILFSQTSATEFVTVGGTGNVYHWDMEYSFSRNDDDNEDEVRVAAPEELQGQCLKFFHTGGTRRSSNQFGKRNTVALHPVINDFVGTVDSDSLVTAYKPFLASDFIGRGYDD”, for which the protein production entry is “failed”.

The values are drawn from a protein production outcome set (Wang et al. 2014).
